Consider two molecules from patent publication US20200138979A1 (REGENTS OF THE UNIVERSITY OF MICHIGAN, published 2020).

Where no end group is shown, it is not given here.

Assay [1] has as its target T1, recombinant FGFR2-ECD (Met1-Glu377), extracellular domain of FGFR2c (UniProt P21802 22-377, glycosylated).
T1 construct: range 1-377; Bought construct; also called #10824-H08H-50, Sino Biological
Description: phage display biopanning (4 rounds) against immobilized recombinant FGFR2-ECD; peptide displayed on M13 phage. How it is done: Peptide selection was performed using a phage display library (New England Biolabs, Ph.D.-12) per manufacturer instructions. This library consists of M13 bacteriophage that expresses ˜10⁹ unique 12-amino acid sequences. 2×10¹¹ pfu consisting of 2×10⁹ unique clones with ˜100 copies each were biopanned against FGFR2-ECD immobilized in a 6-well plate at 4° C. Four rounds of biopanning were performed using a decreasing quantity (100, 80, 60, and 40 μg) of FGFR2-ECD in successive rounds to increase binding specificity. After the 4th round, 50 plaques were randomly selected for DNA preparation and sequence analysis. We used an ABI Automatic DNA Analyzer (Applied Biosystems) with primer 5′-[…] TTA GCG TAA CG-3′ (−96 gIII sequencing primer, New England Biolabs) that corresponds to the pIII gene sequence of the M13 phage.

Assay [2] addresses FGFR2c (fibroblast growth factor receptor 2, isoform IIIc) stably expressed on QhTERT cells (UniProt P21802). Kind of assay: flow cytometry, apparent dissociation constant on QhTERT cells expressing FGFR2c, 0-200 nM peptide, 4° C.
Assay [3] shares this target. Description: flow cytometry time course, 5 µM peptide on QhTERT cells expressing FGFR2c.
The target is the same in assay [4]. Kind of assay: flow cytometry time course, 5 µM peptide on QhTERT cells expressing FGFR2c, first order kinetics fit.
The target is the same in assay [5]. Description: flow cytometry on cells overexpressing FGFR2 (same experiment as kd=68 nM, printed with more digits).

Sequence of FGFR2c (fibroblast growth factor receptor 2, isoform IIIc) stably expressed on QhTERT cells (P21802 22-821): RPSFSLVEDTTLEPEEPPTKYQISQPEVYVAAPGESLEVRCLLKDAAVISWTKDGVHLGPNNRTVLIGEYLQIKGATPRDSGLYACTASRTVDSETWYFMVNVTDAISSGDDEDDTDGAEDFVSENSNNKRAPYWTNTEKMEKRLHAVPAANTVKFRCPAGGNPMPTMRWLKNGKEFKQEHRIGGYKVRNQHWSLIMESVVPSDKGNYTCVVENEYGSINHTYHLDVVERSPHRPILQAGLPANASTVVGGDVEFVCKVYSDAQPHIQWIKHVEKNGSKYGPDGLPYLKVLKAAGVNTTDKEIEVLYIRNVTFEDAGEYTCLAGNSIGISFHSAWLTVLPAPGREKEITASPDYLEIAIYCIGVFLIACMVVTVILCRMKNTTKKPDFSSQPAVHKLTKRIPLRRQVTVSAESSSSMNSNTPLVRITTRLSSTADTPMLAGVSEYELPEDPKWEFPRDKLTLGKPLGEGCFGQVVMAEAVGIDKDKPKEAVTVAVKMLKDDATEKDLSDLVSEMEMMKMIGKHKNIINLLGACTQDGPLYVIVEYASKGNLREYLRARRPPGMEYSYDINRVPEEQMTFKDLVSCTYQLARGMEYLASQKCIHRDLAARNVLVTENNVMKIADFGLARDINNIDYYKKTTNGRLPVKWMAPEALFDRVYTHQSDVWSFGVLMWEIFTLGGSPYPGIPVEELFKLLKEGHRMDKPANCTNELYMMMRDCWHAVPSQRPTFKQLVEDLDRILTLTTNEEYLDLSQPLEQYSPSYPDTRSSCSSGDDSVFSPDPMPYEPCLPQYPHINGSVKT
T1 sequence (P21802 22-377 limits assumed): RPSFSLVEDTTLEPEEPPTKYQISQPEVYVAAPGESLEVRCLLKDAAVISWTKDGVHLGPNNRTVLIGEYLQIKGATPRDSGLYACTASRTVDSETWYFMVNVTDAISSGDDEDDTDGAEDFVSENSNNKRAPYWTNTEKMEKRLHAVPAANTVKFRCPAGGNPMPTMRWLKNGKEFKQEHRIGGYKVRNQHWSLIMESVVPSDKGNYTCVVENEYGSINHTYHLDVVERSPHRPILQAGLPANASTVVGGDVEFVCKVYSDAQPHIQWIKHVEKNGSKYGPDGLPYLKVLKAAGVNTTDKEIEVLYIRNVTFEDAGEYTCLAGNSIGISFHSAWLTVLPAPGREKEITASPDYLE

B1: SRR* peptide SRRPASFRTARE, unlabeled (peptide)
peptide: SRRPASFRTARE
notes: also called unlabeled SRR*; SSR peptide
Consider B1, for which the binding result in assay [1] was “binds”.

B2: SRR*-Cy5.5 (peptide … with Cy5.5 attached via a C-terminal GGGSK linker) (peptide)
peptide: SRRPASFRTAREGGGSK(Cy5.5)-NH2
On to B2, for which the Kd in assay [2] was 68 nM; in assay [5] it was 67.9 nM. Besides, the time scale for onset of binding in assay [3] amounted to 6.2 min. Also, the apparent association time constant k in assay [4] was 0.16 min⁻¹.
